Laboratory results published in US20070104719A1, “Caspase Activated Prodrugs Therapy” (Genentech, Inc., priority 2000, published 2007).
Starred links: 1 amine or outer side, 2 acyl side, 3 side chain; linkers in the order of their positions; H or OH if unused. Non-standard residues stand in square brackets, D forms with d. Residues, ends and D or L forms follow the SMILES beside them. *: point of attachment. Doxorubicin(3'-N) = COc1cccc2c1C(=O)c1c(O)c3c(c(O)c1C2=O)C[C@@](O)(C(=O)CO)C[C@@H]3O[C@H]1C[C@H](N*)[C@H](O)[C@H](C)O1; PABC = O=C(OCc1ccc(N[*:1])cc1)[*:2]

Assays:
[1] = tested on: SK-BR-3 breast carcinoma cells; assay: Cellular accumulation of doxorubicin and Ac-DEVD-PABC-doxorubicin (fluorescence); assay type: cell-based, human; details: SK-BR-3 cells, 10 μM, 0 to 2 h at 37° C.
Description: (§1) FIG. 1. Cellular accumulation of caspase cleavable prodrug Ac-DEVD-PABC-Doxorubicin in SK-BR-3 and MCF7 cells. Uptake of doxorubicin was estimated from a standard curve prepared using known quantities of doxorubicin that were added to the previously untreated cells.
(§2) SK-BR-3 and MCF7 breast carcinoma cells (American Type Culture Collection (ATCC), Rockville, Md.) were cultured in Dulbecco's modified Eagle's medium:Ham's nutrient F-12 (50:50) supplemented with […] glutamine, 100 units/mL penicillin, […] streptomycin (Gibco BRL, Grand Island, N.Y.), and 10% (w/v) bovine fetal serum (Hyclone, Logan, Utah) (cell media) at 37° C., 5% CO2. Adherantly growing cells were detached by treatment with phosphate-buffered saline containing 0.05% trypsin, 0.6 mM EDTA (5 min) and then resuspended at 10^6 cells per mL in fresh cell media. Cells were either used directly (“untreated”) or supplemented with doxorubicin or Ac-DEVD-PABC-doxorubicin into a final concentration of 10 μM. […] Fluorescence measurements were then undertaken using a fluorescent plate reader (Fluoroskan, Helsinki, Finland) with absorption and emission wavelengths of 485 and 590 nm respectively. Uptake of doxorubicin was estimated from a standard curve prepared using known quantities of doxorubicin that were added to the previously untreated cells.

[2] = tested on: MCF7 breast carcinoma cells; assay: as above; assay type: cell-based, human; details: 10 μM, 0 to 2 h at 37° C.
Description: as §1, §2

[3] = target: T1, recombinant human caspase 3 (Homo sapiens, UniProt P42574); assay: Activation of Ac-DEVD-PABC-taxol by caspase 3 (HPLC); assay type: biochemical
T1 construct: purchased Calbiochem
T1 sequence (P42574 29-175 limits assumed): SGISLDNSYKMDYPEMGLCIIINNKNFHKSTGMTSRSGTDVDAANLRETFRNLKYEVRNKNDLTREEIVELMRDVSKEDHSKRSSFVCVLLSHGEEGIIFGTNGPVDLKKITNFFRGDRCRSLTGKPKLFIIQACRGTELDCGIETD
T1 sequence (P42574 176-277 limits assumed): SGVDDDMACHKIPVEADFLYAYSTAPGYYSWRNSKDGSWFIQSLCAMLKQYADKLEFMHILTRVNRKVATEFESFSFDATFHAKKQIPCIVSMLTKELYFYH
Description: Ac-DEVD-PABC-taxol (35 μM) was incubated with 1 ng recombinant human caspase 3 (Calbiochem) in the presence or absence of the caspase 3 inhibitor, Z-DEVD-FMK (400 μM) (Calbiochem) in phosphate-buffered saline containing 5% (v/v) dimethyl sulfoxide and 45 mM DTT in a total reaction volume of 700 μL. A control reaction was performed in which caspase 3 and inhibitor were omitted. Reactions were incubated for 0 to 2 h at 37° C. and then frozen in dry ice. Reactions were then analyzed by reverse phase HPLC using a Microsorb-MV C18 reverse-phase column (4.6 mm internal diameter×250 mm length, 5 μm particle size, 100 Å pore size) (Rainin) under isocratic conditions. 0.1% (v/v) TFA, 46% (v/v) acetonitrile at a now rate of 1.5 mL/min whilst monitoring the absorbance at 254 nm. The retention times for taxol and Ac-DEVD-PABC-taxol were 13.3 min 10.4 min, respectively.

granzyme B = granzyme B (Homo sapiens, UniProt P10144); assay: Cleavage of Ac-DEVD-pna by granzyme B; assay type: biochemical
Chain of granzyme B (P10144 21-247, species assumed): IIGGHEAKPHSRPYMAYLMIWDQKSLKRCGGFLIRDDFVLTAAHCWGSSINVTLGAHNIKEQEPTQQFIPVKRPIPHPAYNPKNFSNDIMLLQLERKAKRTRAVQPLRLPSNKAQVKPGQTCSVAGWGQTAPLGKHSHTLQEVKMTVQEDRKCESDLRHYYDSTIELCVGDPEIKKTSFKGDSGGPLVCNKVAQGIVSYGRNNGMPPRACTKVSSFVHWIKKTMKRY
Excerpt: (§3) The most favorable substrates for caspases 2, 3 and 7 are DEHD (SEQ ID NO:8), DEVD (SEQ ID NO:3) and DEVD (SEQ ID NO:3) respectively. These sequences are very poor substrates for granzyme B which has the preferred substrate IEPD (SEQ ID NO:13) (Thornberry et al., (1997) supra) and for proinflammatory caspases (caspases 1, 4, 5, 11, 12, 13) which have a preference for a large hydrophobic residue at S4 (caspase 1 WEHD (SEQ ID NO:6), caspase 4 (W/L)EHD, caspase 5 (W/L)EHD).

[4] = target: T2, recombinant commercial caspase 3 (Homo sapiens, UniProt P42574); assay: Hydrolysis of Ac-DEVD-pna by caspase 3; assay type: biochemical
T2 construct: purchased
T2 sequence (P42574 29-175 limits assumed): T1 sequence (P42574 29-175 limits assumed)
T2 sequence (P42574 176-277 limits assumed): T1 sequence (P42574 176-277 limits assumed)
Excerpt: as §3

For `COc1cccc2c1C(=O)c1c(O)c3c(c(O)c1C2=O)C[C@@](O)(C(=O)CO)C[C@@H]3O[C@H]1C[C@H](NC(=O)OCc2ccc(NC(=O)[C@H](CC(=O)O)NC(=O)[C@@H](NC(=O)[C@H](CCC(=O)O)NC(=O)[C@H](CC(=O)O)NC(C)=O)C(C)C)cc2)[C@H](O)[C@H](C)O1` [Ac-DEVD-PABC-Doxorubicin, Ac-DEVD-PABC-doxorubicin] (Ac-DEVD[PABC]-{Doxorubicin(3'-N)}), the accumulation inside cells [1] was “did not” and the accumulation inside cells [2] was “did not”.

“Ac-DEVD-PABC-paclitaxel [Ac-DEVD-PABC-taxol]” was tested, and the “activation by caspase 3 (conversion to taxol)” value ([3]; 35 μM prodrug, 1 ng caspase 3) was “efficiently activated”, the “Conversion (%)” value ([3]; Caspase 3 + inhibitor (Z-DEVD-FMK 400 μM), incubation time 0 min) was 0% and the “Conversion (%)” value ([3]; Caspase 3 + inhibitor (Z-DEVD-FMK 400 μM), incubation time 30 min) was 0%. For the same molecule, the “Conversion (%)” value ([3]; Caspase 3 + inhibitor (Z-DEVD-FMK 400 μM), incubation time 120 min) was 0%, the “Conversion (%)” value ([3]; Caspase 3, incubation time 0 min) was 0% and the “Conversion (%)” value ([3]; Caspase 3, incubation time 30 min) was 65%. The “Conversion (%)” value ([3]; Caspase 3, incubation time 120 min) was 100%.

“acetyl-L-Asp-L-Glu-L-Val-L-Asp-p-nitroanilide [Ac-DEVD-pna]” was tested, and the “cleavage by granzyme B” value (granzyme B) was “no detectable cleavage” and the “hydrolysis by caspase 3” value [4] was “readily hydrolyzed”.
